According to the DeepSol protein solubility set:

Test: soluble on expression in E. coli; label from the status in PepcDB or PDB records
With “MAHHHHHHMTFEFGEECNNLARAAHQTKNYGDAISLYDRALTMRREKYGPIHKKCAATLHNIGRVFIDMKEYGAAENAFTEAAAIYEQVEGDKSLEYAESLELLALCYTHLKFLDEAEKAFKDSIRIFRDQCYNYGNNSWLPDDKTPPAEPNKHPLSSAAHALADCAALFLFRRQEHQAVAFLEEALEIRRFLYSRHVKFRPMIAQTLNKLCELKKSLDDAVGAEMCINECLEICIETLGRDHPATAQATSSKAGLLAAKKQFRDALRLYEESTRTYAMALGKDAPLFGQELMKLGRCQELCNDVVNAEKTFRRGVEIITNGFGPNSLQLAEANTFYGSLLARRLDIDQAVGMFRDAIRIRKSVDKHDPQLAYLYQKIGDAYAMRREPHAEAYFLLAVDAFKQNATIEPLQRTYMTDVLDDLGLFYLDFQHYEKAEKCFKEALDTRIEMLGENHATVAYSYSNFALLYLQRQDYANCEKMAEAALDIYSKTARSNVLAQADVHTTLGQCYHQQNQFAKALEMHEKALNVRRTRGDTTETAVAESLNQIARVYITMKRYGKAYRHVKEARRLVWQFNVEITQPLRNEIVKTEQMIPPMEEWTNEERAEAQVMIGDGSSAGNGSAATTATGA” the “soluble on expression in E. coli” value was “not soluble”. With “MAHHHHHHMTKVWMPWAYQALLAYAHSGAAHGQANLWLKGQTSTPLQRICDPVPNLLISQSSQGGQRALWLLHRPESVLGLVVSPQWQGESGDHELCDASVVSKRKIVRVMKHLHSLPFRVAGSSPLRPPMVVHKNHLVGWRIDGKAAPLYAHTLDQLAKLKPTQFKTIEPKNAFICRTYYEWDNWKEVSMEPGWTWHHVDEEIANNILDGTLTFDGLRATATDTP” the “soluble on expression in E. coli” value was “not soluble”. In the case of “MAHHHHHHMTLIENLNSDKTFLENNQYTDEGVKVYEFIFGENYISSGGLEATKKILSDIELNENSKVLDIGSGLGGGCMYINEKYGAHTHGIDICSNIVNMANERVSGNNKIIFEANDILTKEFPENNFDLIYSRDAILHLSLENKNKLFQKCYKWLKPTGTLLITDYCATEKENWDDEFKEYVKQRKYTLITVEEYADILTACNFKNVVSKDLSDYWNQLLEVEHKYLHENKEEFLKLFSEKKFISLDDGWSRKIKDSKRKMQRWGYFKATKN”, the “soluble on expression in E. coli” value is reported as “soluble”. With “MAHHHHHHMTSAYRIRDAAPADAGIMVRMLMSLASETENVELDEGEVRRGVTTLFEQGSLGRLYVAEEVPKGDTNIKGPSDGNRSSPQIVGVMTVTYEWSDWRGKLFLWIQSVYIIPSKRKQGIFQKFYDHLIRIMAEDPKYCGLRLAVNSKNEKAIRAYKQVGMKREKYQLMGRMKSKY” the “soluble on expression in E. coli” value was “soluble”. With “MAHHHHHHMTSLQNLFVAKLPRNLTDADLHQIFVQYNPTSAKVMLDATTGKSKGFGFVLFASEDAGRTAYEKLNKTHVTLHGHNFNLCIFPSKHDGKVAMEESNALYVRNIPLKLSQAEVEQFLRGFGPLTYCAMREDNFGGSVWVVYAEFDSVESAKRALMSLHGNRTYFNTSVAILAKYADSEETKRERRRRREQQQAEQQHLDTVHNFGSPTTGLDSNKGFAVQSQNTPLPPPPPPPMRTSPGHSSTGSTLASSYSTSDMHKEGTGASLHPPTFASISHHFAPGRHGGGGPPPAMGQPAAPPASSMLASSTLQPTQPVSGQPQQSPTPNSGSFLNVIFNPTSANNFGNSFTHYSVLDQTPSRSSPGTPLNFSFGPEMENSGALANGLGTGSHAMLSASGHAPMTPVRRSSNLSTSGSYRHNPYAPVTPVSSTHNSTGPSTPLVSSIAYPTAPLAIMHFGASHHLQGSPVALHPLGPGIGVANNHFASRGNNAYLAAPASFNDLSH” the “soluble on expression in E. coli” value was “not soluble”. For “MAHHHHHHMTSSSVTPDQVLAFTAPTERFLCPLTANKYGVEFYQFTIRDIEQNKVLFEVGEAPDGSADGSVTDMLARVAQLSEEEAAAARTIRYRFAPSFLRKTAVGAKLVFGVNGDQPVPKFRMIERHYFRNVLIKSFDFEFGFCIPHSTNTWEAIYDMPSLNPEWEEAIVASPFEMASDSFYFVGNELIMHNKAYYAYDGEEL”, the “soluble on expression in E. coli” value was “not soluble”. In the case of “MAHHHHHHMTTLEKQLQSSTLSKQCRADLLNHVEEVETNSRRLPKKMITLPDPNLPSAVTMPTDNSVKRGTRSATAGANMARSLHYTTRKREKDEMVASRITSDRNLSGTYFKDCSHKFVNGARSWSDPFRSSRSRTALSGKDMDFVYRYAEAATGSAIERPQPADDASVAATAAYRKAFRQYKGRDPTAKEMEEAGRLVYAFDENCSVGVLQKPHSCYPHTHISAVKTHIRACPNQVYLPEVPPVRAARSEFPGPIPTWSSTKRTTTMATNGTYRPGHHQAKSLKWEAVSTVVGSR”, the “soluble on expression in E. coli” value is reported as “not soluble”. In the case of “MAHHHHHHMVRRLEGNPVPTIGIIFMLHAHRTAHLKYYQSMSLFAIENVDVVWGAAGYSILKQTQGAWMALYDEAYVSENKVMPFGYLVQNGVLMPTSDPCNAANTLAGDGSATAKKWGGTSQQKHRYAYEADVVPRRSCIKARTRSADNSGRRVTFCSGDTEFGVF”, the “soluble on expression in E. coli” value is reported as “not soluble”. With “MAHHHHHHMVSFSLIIYTSLRLAHACDARNCTLQQLGRQLEAVVTVCDESSSTTTTESTSERANNASSAADATRTGQGADAAQQVHSTTQAKRASLARDSDFKSSSEIAAFSVLRAWCPPPTARILILGMGGNSMAHALRVVLGAEALIEVVEVEPAVVVSCMQMGTLHESDTKTKVHLQDADQCLATLPPTTYDFIYMDIFEPIQATMRNLHPWVLATRTLLKPGGLLVMNDHHLPSAAGVAPYAKVFGEGNVQAVNLRGWSESIVVCVAPGDAATDKYSLDVSKTHADIAFNIYETLVPGWLPHFSWLVKAKTYRHEGVRCRLWTS” the “soluble on expression in E. coli” value was “soluble”. For “MAHHHHHHMYDVKSIHIFRKVKDKDKGKSVILRGLNDNFFNAILVCMYEIVIYLNFANCEDGSTNKPSNKKKKKKGDDRNETTYYVKSARNENNAYRSNVKEVISHNKNKKKINGASGNAAVTREEKGKAERSGDFPGGGENMNDDKENPNQITLWSSNNHEEFGYEYIKDIIKKEEKELYETDKMYHNSNDEYSSHTSDSVEQ”, the “soluble on expression in E. coli” value was “not soluble”. For “MAHHHHHHMYFVIEEWKNVIIKPSQLGPRYQQYIEDMLRNSVEGQCSVKYGYVICVIRIIHSEPGRVQDGTGMIVVKVKYQAIVFKPFKDEVLDAIVTDVNKLGFFAQAGPLKIFISRTAIPKYFEYSEDLHYPCFSSGDYNIKPQTTVRIKLQGIRYDLSNMFAIATINNEYLGCIESNILQVM”, the “soluble on expression in E. coli” value was “not soluble”. In the case of “MAHHHHHHMYRSSGELRKYAQCVFALYCLDDGLSISRFRLAWYVLWGKWPEESVVQMLFDKKDKSTGGNEDPTGEEGGIVGSGGLAEKDKHHDGGTPLAQSFPFSALRRRINEKEFVRFAVTYHDTMGADAVGFGVTEEDGEYATVDMQSAFSGVVRARHWLQFHALAGSKGYVTLDDLIATEKVDWLYPPMSGGSASGLMVEQAGDDSSTMPQDDVDRRLAVLSHVFAIIDGDHDGKLNFEDVTRHLAKTA”, the “soluble on expression in E. coli” value is reported as “not soluble”. In the case of “MAHHHHHHMYSDGERKTVSELQREAEATRKEIIEEAQRLERIKKATAKTQFSIDQLFRFFAREVETEGEKKMLIDLLSSNPPDLHIECVPVLPVVIAIANGRMTNARRIYATDNAFLDDSAFIFLVHTLRFLPQACKIDFLDISGTRVTERGMCFVLEMMIERNTPFTLVAKRLSIPSPEAEAMRARYASLMSALRDKKCCRFIQE”, the “soluble on expression in E. coli” value is reported as “not soluble”. With “MAHHHHHHSAALEVLFQGPGMAETKLQLFVKASEDGESVGHCPSCQRLFMVLLLKGVPFTLTTVDTRRSPDVLKDFAPGSQLPILLYDSDAKTDTLQIEDFLEETLGPPDFPSLAPRYRESNTAGNDVFHKFSAFIKNPVPAQDEALYQQLLRALARLDSYLRAPLEHELAGEPQLRESRRRFLDGDRLTLADCSLLPKLHIVDTVCAHFRQAPIPAELRGVRRYLDSAMQEKEFKYTCPHSAEILAAYR” the “soluble on expression in E. coli” value was “soluble”. For “MAHHHHHHSGMSGMRVYLGADHAGYELKQRIIEHLKQTGHEPIDCGALRYDADDDYPAFCIAAATRTVADPGSLGIVLGGSGNGEQIAANKVPGARCALAWSVQTAALAREHNNAQLIGIGGRMHTVAEALAIVDAFVTTPWSKAQRHQRRIDILAEYERTHEAPPVPGAPA”, the “soluble on expression in E. coli” value was “soluble”. In the case of “MAHHHHHHSLEYNLTTTEVAMENVSASWDEGIGEFFEKAKLEVNGGNISNEDPSAFFSNFSLHVAPVLRNINFKIEKGQLLAIAGSTGAGKTSLLMMIMGELEPSAGKIKHSGRISFSPQVSWIMPGTIKENIVFGVSYDQYRYLSVIKACQLEEDISKFPEKDNTVLGEGGITLSGGQRARISLARAVYKDADLYLLDSPFSYLDLFTEKEIFESCVCKLMANKTRILVTSKVEQLKKADKVLILHEGSCYFYGTFSELEDQRPEFSSHLIGFDHFNAERRNSIITETLRRCSEG”, the “soluble on expression in E. coli” value is reported as “soluble”. For “MAHHHHHHSLITIETVLTILKNNANFREIIDGKHYQYKYSNPEVAFHHISYDSRDIKASTLFFVKGATFKKEFLEKAIESGLTFYVAEKDYQVGIPLILVNNIKNAMCLIAKEFYDNPQDKLKTLAFTGTKGKTTAAYFAYHILKQGYRPAMISTMNTTLDGKTFFKSKLTTPESLDLFKMMAQAVANGMTHLIMEVSSQAYLVGRVYGLTFDVGVFLNISPDHIGPIEHPTFEDYFYHKRLLLKHSRYVIVNSQMNHFALIKEQVADQPHDFYGKYSDNQIINSKAFSFDLTGKLAGHYDIQLTGSFNQENAVAAALACLQLGASQTDIQKGIVQTTVPGRMEVLIQKNGAKVFVDYAHNGDSLEKLLSVVEEHQKGTLILILGAPGNKGESRRADFGYVINAHPELQVILTADDPNNEDPQLISQEIAHHIKRPVNIIVDRKQAIQKAMSLTQSENDAVIIAGKGADAFQIIKGKRTAYAGDIEVARKYLEG”, the “soluble on expression in E. coli” value was “soluble”. In the case of “MAHHHHHHSLKIRQARLEDLDRIVELEFENFSVEEAIPPSVFEAHLREIQTSFLVAEKEGRIMGYIEGPVGLHRHLQDQSFTEEIKDYSHEPGGYISVTCLSIAKEAQGLGLGQKLLTALKEVALEDERDGINLTCHDYLIAYYEKHGFVNEGQSQSTFAGETWYDMVWEMKKEG”, the “soluble on expression in E. coli” value is reported as “not soluble”. In the case of “MAHVAFNLLHLPAKTLRNVFQLMSHSELFIFSFASICAKRLVKSMNFEMLELDLVYSRPCKLKISFGEHEEFIIEFDEFGTLSKQEPSDAFVFLIAYKLDIRDCINHVLEVYKISKLHTLKVIGAINNPQNLLKIIGKLDLKVLWIFFNFSENSTTISVYREILNHLGARCDVRSLRRGFYDKEPQKSFFLLRLSLSYALSQEPHSRPTATLAARRLKRRQDTQPLDATTSVLMLRSCRTVGRGTSLPTHPPFSFVIAPHYYSCTCSDIQGEPDKLQ”, the “soluble on expression in E. coli” value is reported as “not soluble”. In the case of “MAIADEFRQLQTRLLECWEGTETFIPELPRGPGGIERDILVVPSLSFPQPELGKITGYTHYEERQLYTLIQLRNPRTRMIYVTSQPLHPSIVDYYLDLLPGVPSCHARDRLLLLATYDRSDKPLTAKILERPRLLERIRQALRPNQAYMVCFNSTPLERELAVRLGVPLYSTDPDLLYWGTKAGSRELFAAAGIRHPIGSGFLQGVPELVRAIAHLQEKCPELQQLVVKLNEAFSGEGNALLDLRPLRPLGSPHTPDHLQRIENSLEDMVFQAPNETWASYRQRFTDLGGIVEAFVEGTVKRSPSVQGCITPKGSVEIVSTHEQLLNAPTGQIFIGCEFPAHADYRQQLQELGQKVGTYLAQQGVIGCFSVDVVATQTTEGWELYAIEINLRKGGTTHPFMTLKFLTDGHYELASGRFYSKHRRPKYYIASDNLCQPHYRGLLPNDLLDMIARYHLHFDSSTETGTVFHLMGALSEFGKLGLVSIGNTPEEAQAIYNQTIGVLDAAALLEHHHHHH”, the “soluble on expression in E. coli” value is reported as “not soluble”.
